B1: TCN-553 (5261_C18) (antibody, V domains shown)
VH: QVQVVQSGTEVKKPGSSVKVSCQTSGGRFMSYAITWVRQAPGQGLEWMGGIVPVFGTANYAQKFQGRVTITTDDSTRTAYMELSSLRSEDTAVYYCGFRYGSGYGFDSWGQGTLVTVSS
VL: EIVLTQSPGTLSLSPGERATLSCRASQSVSSSYLAWYQKKPGQAPRLLIYGASTRATGIPDRFTGSGSGTDFTLSISRLEPEDFAVYYCQHFGTSVFTFGGGTKVEIK
B2: TCN-537 (3194_D21) (antibody, V domains shown)
VH: QVQLQQWGSGLLKPSETLSLTCAVYGGSFRDDYWTWIRQPPGKGLEWIGEINHSGRTNYNPSLKSRVTISVDTSLKQFSLKVISVTAADTAVYYCARGTSHVSRYFDWLPPTNWFDPWGQGTQVTVSS
VL: DIVLTQSPGTLSLSPGERATLSCRASQSVSSSYLAWYQQKPGQAPRLVMYGAATRATGIPDRFSGSGSGPDFTLTISRLEPEDFAMYYCQQYGNSPITFGQGTRLEIK
B3: TCN-540 (5060_F05) (antibody, V domains shown)
VH: QVQLVQSGGGVVQPGRSLRLSCAASGFTFSSYAMHWVRQAPGKGLEWVAIISYDGNDQYYTDSVKGRFTISRDSSKVYLQMHRLRPEDTAVYYCAKEFETSGYFHGSFDYWGQGILVTVSS
VL: QSALTQPASVSGSPGQSITISCTGTSSDVGGYNYVSWYQQHPGKAPKLLIYEVTNWPSGVSNRFSGSKSGNTASLTISGLQAEDEADYYCSSYAGSSTWVFGGGTRVTVL
B4: TCN-526 (5084_C17) (antibody, V domains shown)
VH: EVLMVESGGGLVQPGGSVRLSCVASGFSFSSHWMTWVRQAPGKGLEWVANIEDDGGDKYYVDSVKGRFIISRDNAKNSVYLQMNSLRAEDTAVYFCARGSGSSDRSDYDPHYYYYLDVWGKGATVTVSS
VL: DIQLTQSPSSLSASVGDRVTITCRASQSISRYLNWYQQKPGKAPKLLLFAASTLLDGVPSRFSGSGSGTDFTLTISSLQPEDFATYYCQRNHSPSWTFGQGTRVEIK
B5: TCN-550 (5096_F06) (antibody, V domains shown)
VH: QVQLQESGPGLVKPSETLSLTCTVSGASINSHYWSWIRQPPGKGLEWIGYVYYSGSTTYNPSLKSRVTLSVDTSKNQFSLNLSSVTAADTAFYYCARHPYDVLTGSGDWFDPWGQGTLVTVSS
VL: SYVLTQAPSVSVAPGQTARITCGGNAIGSKKVHWYQHKAGQAPVLVVYDDTDRPSGIPERFSGSNSWSTATLTINRVEAGDEADYYCQVWDFTIDHVVFGGGTKLTVL
B6: TCN-546 (5089_L08) (antibody, V domains shown)
VH: QVQLQQWGAGLLKPSETLSLTCGVYGGSLSDYYWSWIRQPPGKGLEWIGEINHSGGTNYNPSLKRRVTISVDTSKKQFSLKMNSVTAADTAVYYCARGTDPDTEVYCRAGNCAAFDFWGQGTLVTVSS
VL: EIVLTQSPGTLSLSPGERATLSCRASHFVIGRAVAWYQQKPGQAPRLLIYGASSRATGIPDRFSGSGSGTDFTLTISRLETEDFAVFYCQHYGSSPRYAFGQGTKLEIK
B7: TCN-557 (5081_A04) (antibody, V domains shown)
VH: QVQLVQSGAEVKKPGASVKVSCKASGHTFTGYYIHWVRQAPGQGLEWMGWINPDSGATSSAQNFQGRVTMTGDTSSSTAYMELSRLSFDDTAVYYCARVLFTSPFDFWGEGTLVTVSS
VL: QAVVTQEPSLAVSPGGTVTLTCGSSTGAVTRGHYPYWFQQKPGQAPRALIYDSAGNRHSWTPARFSGSLLGGKAALTLSGAQPEDEAEYYCLLSYSGVWVFGGGTKLTVL
B8: TCN-548 (5092_P01) (antibody, V domains shown)
VH: QVQLQESGPGLVKPSETLSLTCTVSSGPMSDYYWSWIRQPPGKGLEWIGHVSVSHGGRTKSNPSVMSRVTISVETSKNQFSLKLTSVTAADTAVYYCARLNYYDRSGYHSPDGPSNNWFDPWGQGTLVTVSS
VL: not shown
B9: TCN-552 (5249_I23) (antibody, V domains shown)
VH: QVQVVQSGAEVKKPGSSVRVSCQASGGTFMNYAIIWVRRAPGQGLEWMGGIIPVFPTPNYAQMFQGRVTISTDESRSTSFLELTNLRYEDTAVYYCARRIYHGGNSGFDFWGQGTLVTVSS
VL: EIVLTQSPATLSLSPGERATLSCRASQSVGNYLAWYQQKPGQAPRLLIYDSSNRAPGIPARFSGSGSGTDFTLTISSLAPEDFAVYYCQQRSKWPPMYSFGHGTKLEIK
B10: TCN-554 (5277_M05) (antibody, V domains shown)
VH: QVQLVQSGADLKKPGASVKVSCKASGYTFTDYYIHWVRQAPGQGLEWMGWINPESGDTKYAQKFQGRVTMTRDTSITTAYMELGRLRSDDTAVYYCARDVSTTWSWFAPWGQGTLVTVSS
VL: DIVMTQSPDSLAVSLGERATINCRSSQSIFHNSNNENYLAWYQQKPGQPPKLLIYWASTRESGVPDRFSGSGSGTDFTLTISSLQAEDVAVYFCQQYYNAPLTFGGGTKVEIK
B11: TCN-558 (5248_H10b) (antibody, V domains shown)
VH: QVQLVQSGSEVKKPGTSVKVSCTASGSVFTNYGISWVRQAPGQGLEWMGGIIPLFGAAKYAQKFQGRVTITADESTKTVYMELSRLTSKDTAIYFCAKAPRVYEYYFDQWGQGTPVTVSS
VL: EIVMTQFPATLSVSPGERVTLSCRASQSVSNNLAWYQQKPGQPPRLLIYDASTRATGVPAKFSGTGSGTEFTLSISSLQSEDFAVYYCQQYHNWPPSYSFGLGTKLEIK
B12: TCN-542 (5079_A16) (antibody, V domains shown)
VH: QVQLQESGPGLVKPSQTLSLTCTVSGGSISSGNYYWNWVRQHPGKGLEWIGYIYYRGSTFYNPSLKSRVTISIDTSKNQFSLRLSSVTAADTAVYYCAKDTRSSLDNYQYGMDVWGQGTTVTVSS
VL: QTVVTQEPSLTVSPGGTVTLTCASSTGAVTSSYFPNWFQQKPGQAPRPLIYSTTIRHSWTPARFSGSLLGGKAALTLSGVQPEDEADYYCLLYSGGDPVAFGGGTKLTVL

Assays:
Settings in all cases: remark: other sources report otherwise
[1] = biological target: recombinant homotrimeric HA, A/Vietnam/1203/04 H5N1 (Influenza A virus A/Vietnam/1203/04 (H5N1)); test: trimeric HA microarray, transfection set 5
[2] = biological target: T1, recombinant homotrimeric HA, A/South Carolina/1/18 H1N1 (Influenza A virus A/South Carolina/1/18 (H1N1)); test: trimeric HA microarray, transfection set 5
[3] = biological target: T2, recombinant homotrimeric HA, A/Japan/305/57 H2N2 (Influenza A virus A/Japan/305/57 (H2N2)); test: trimeric HA microarray, transfection set 5
[4] = biological target: T3, recombinant homotrimeric HA, A/Wisconsin/67/05 H3N2 (Influenza A virus A/Wisconsin/67/05 (H3N2)); test: trimeric HA microarray, transfection set 5
[5] = biological target: recombinant homotrimeric HA, A/Indonesia/5/05 H5N1 (Influenza A virus A/Indonesia/5/05 (H5N1)); test: trimeric HA microarray, transfection set 5
[6] = biological target: recombinant homotrimeric HA, A/California/4/09 H1N1 (Influenza A virus A/California/4/09 (H1N1)); test: trimeric HA microarray, transfection set 5
[7] = biological target: T4, recombinant homotrimeric HA, A/Solomon Islands/3/06 H1N1 (Influenza A virus A/Solomon Islands/3/06 (H1N1)); test: trimeric HA microarray, transfection set 5
[8] = biological target: T5, recombinant homotrimeric HA, A/swine/Ontario/01911-2/99 H4N6 (Influenza A virus A/swine/Ontario/01911-2/99 (H4N6)); test: trimeric HA microarray, transfection set 5
[9] = biological target: T1, recombinant homotrimeric HA, A/South …; test: trimeric HA microarray, transfection set 2
[10] = biological target: T2, recombinant homotrimeric HA, …; test: trimeric HA microarray, transfection set 2
[11] = biological target: T3, recombinant homotrimeric HA, …; test: trimeric HA microarray, transfection set 2
[12] = biological target: recombinant homotrimeric HA, A/Hong Kong/1073/99 H9N2 (Influenza A virus A/Hong Kong/1073/99 (H9N2)); test: trimeric HA microarray, transfection set 2
[13] = biological target: recombinant homotrimeric HA, A/Netherlands/219/03 H7N7 (Influenza A virus A/Netherlands/219/03 (H7N7)); test: trimeric HA microarray, transfection set 2
[14] = biological target: T4, recombinant homotrimeric HA, A/Solomon …; test: trimeric HA microarray, transfection set 2
[15] = biological target: T5, recombinant homotrimeric HA, …; test: trimeric HA microarray, transfection set 2
[16] = biological target: recombinant soluble homotrimeric HA of A/northern shoveler/California/HKWF115/07 (Influenza A virus A/northern shoveler/California/HKWF115/2007); test: microarray, BCC supernatant IgG, trimeric HA
[17] = biological target: recombinant soluble homotrimeric HA of A/chicken/Vietnam/NCVD-016/08 (H5N1) (Influenza A virus A/chicken/Vietnam/NCVD-016/08 (H5N1)); test: microarray, BCC supernatant IgG, trimeric HA

Row | Binder | Trimeric HA Binding RLU [1] [RLU] | Trimeric HA Binding RLU [2] [RLU] | Trimeric HA Binding RLU [3] [RLU] | Trimeric HA Binding RLU [4] [RLU] | Trimeric HA Binding RLU [5] [RLU] | Trimeric HA Binding RLU [6] [RLU] | Trimeric HA Binding RLU [7] [RLU] | Trimeric HA Binding RLU [8] [RLU] | Trimeric HA Binding RLU [9] [RLU] | Trimeric HA Binding RLU [10] [RLU] | Trimeric HA Binding RLU [11] [RLU] | Trimeric HA Binding RLU [12] [RLU] | Trimeric HA Binding RLU [13] [RLU] | Trimeric HA Binding RLU [14] [RLU] | Trimeric HA Binding RLU [15] [RLU] | Trimeric HA Binding: RLU [16] [RLU] | Trimeric HA Binding: RLU [17] [RLU]
1 | B1 | 19200 | 41300 | 39800 | 25200 | 31200 | 23300 | 49600 | 12200 |  |  |  |  |  |  |  |  | 
2 | B2 |  | 46800 | 16200 | 1940 |  | 33800 |  | 3280 |  |  |  |  |  |  |  |  | 
3 | B3 |  | 1360 | 47900 | 53000 | 2570 | 984 | 1180 |  |  |  |  |  |  |  |  |  | 
4 | B4 |  |  |  |  |  |  |  |  | 2310 | 3590 | 27800 | 490 | 5660 | 1470 | 3490 |  | 
5 | B5 |  | 1010 | 731 | 37800 | 9000 | 628 | 758 |  |  |  |  |  |  |  |  |  | 
6 | B6 |  | 955 | 1730 | 28500 | 40900 | 1080 |  |  |  |  |  |  |  |  |  | 1350 | 
7 | B7 | 21300 | 44900 | 27300 | 46100 | 22200 | 44400 | 27000 | 41500 |  |  |  |  |  |  |  |  | 
8 | B8 |  | 1150 | 1020 |  |  | 818 | 750 |  |  |  |  |  |  |  |  | 314 | 254
9 | B9 | 18500 | 37400 | 52000 | 18500 | 43400 | 23500 | 48600 | 9080 |  |  |  |  |  |  |  |  | 
10 | B10 |  | 1260 | 2620 | 25300 |  |  | 992 | 5400 |  |  |  |  |  |  |  |  | 
11 | B11 |  | 40700 | 34400 | 26600 |  | 20200 | 36100 | 10000 |  |  |  |  |  |  |  |  | 
12 | B12 |  | 1120 | 5180 |  |  |  |  | 14300 |  |  |  |  |  |  |  | 900 | 
